Results on eleven molecules are retold here after patent publication US8114968 (dated 2012).

One may read the Kd as the constant that tells how readily two partners part at equilibrium. High values mean lower affinity, low ones higher affinity. One may read the IC50 as the midpoint of a concentration-inhibition curve.

Test [1] deals with M121-E07. The test is described as follows: -; column head prints nM.
Target sequence in this assay (P34960 110-473): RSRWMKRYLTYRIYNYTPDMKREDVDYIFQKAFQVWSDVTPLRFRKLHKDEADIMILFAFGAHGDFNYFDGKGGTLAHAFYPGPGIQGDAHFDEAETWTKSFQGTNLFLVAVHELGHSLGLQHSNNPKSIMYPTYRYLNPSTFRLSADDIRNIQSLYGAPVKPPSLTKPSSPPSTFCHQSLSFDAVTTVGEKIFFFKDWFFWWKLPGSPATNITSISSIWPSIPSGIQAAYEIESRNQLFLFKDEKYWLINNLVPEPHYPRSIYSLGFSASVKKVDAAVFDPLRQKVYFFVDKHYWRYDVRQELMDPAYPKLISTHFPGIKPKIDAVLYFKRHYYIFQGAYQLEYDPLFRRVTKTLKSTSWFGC
In test [2] the target is M118-F11. Briefly: -; column head prints nM.
Target sequence in this assay (P34960 110-473): as above
For test [3], the target named is M109-G11.
Target sequence in this assay (P34960 110-473): as above
For test [4], the target named is M107-A12.
Target sequence in this assay (P34960 110-473): as above
In test [5] the target is M109-G11. This is another data set of the same source.
Test [6] deals with M121-E07.
Test [7] concerns the target M107-A12. This is another data set of the same source.
For test [8], the target named is M118-F11.
Test [9] deals with T1, murine MMP-12 (UniProt P34960 110-473). The test is described as follows: enzyme inhibition.
Test [10] has as its target T1, murine MMP-12. Briefly: enzyme inhibition; recombinant; peptide substrate.
Test [11] deals with T2, human MMP-12 (UniProt P39900 106-470).
For test [12], the target named is T2, human MMP-12. The test is described as follows: enzyme inhibition.
For test [13], the target named is T1, murine MMP-12. The test is described as follows: -; column head prints nM.
In test [14] the target is T1, murine MMP-12.

Substitutions are numbered along the chain they refer to. Where two headings read alike, the source gives them in different places.

T1 sequence (P34960 110-473): as above
Chain of M088-H10 (P34960 110-473): as above

B1: Mouse MMP12 (enzyme)
chain: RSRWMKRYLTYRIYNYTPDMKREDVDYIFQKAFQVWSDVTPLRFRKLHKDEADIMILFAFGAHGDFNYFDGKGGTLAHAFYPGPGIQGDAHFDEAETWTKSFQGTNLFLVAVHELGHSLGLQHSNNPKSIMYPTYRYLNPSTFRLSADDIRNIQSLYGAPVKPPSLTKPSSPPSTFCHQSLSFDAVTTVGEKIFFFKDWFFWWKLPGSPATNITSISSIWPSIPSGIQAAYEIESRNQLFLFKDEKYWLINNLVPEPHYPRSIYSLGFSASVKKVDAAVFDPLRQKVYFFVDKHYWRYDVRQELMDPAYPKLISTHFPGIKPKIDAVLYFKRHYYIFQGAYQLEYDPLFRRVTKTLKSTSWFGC
As to B1, the Kd in the test with M121-E07 [1] was 0.181 nM; in the test with M118-F11 [2], 0.727 nM; with M109-G11 [3], 1 nM; with M107-A12 [4], 0.9 nM; with M088-H10, 34.4 nM.

B2: Human MMP12 (enzyme)
chain: GPVWRKHYITYRINNYTPDMNREDVDYAIRKAFQVWSNVTPLKFSKINTGMADILVVFARGAHGDFHAFDGKGGILAHAFGPGSGIGGDAHFDEDEFWTTHSGGTNLFLTAVHEIGHSLGLGHSSDPKAVMFPTYKYVDINTFRLSADDIRGIQSLYGDPKENQRLPNPDNSEPALCDPNLSFDAVTTVGNKIFFFKDRFFWLKVSERPKTSVNLISSLWPTLPSGIEAAYEIEARNQVFLFKDDKYWLISNLRPEPNYPKSIHSFGFPNFVKKIDAAVFNPRFYRTYFFVDNQYWRYDERRQMMDPGYPKLITKNFQGIGPKIDAVFYSKNKYYYFFQGSNQFEYDFLLQRITKTLKSNSWFGC
As to B2, the dissociation constant (Kd) with M109-G11 [5] is 7.5 nM; with M121-E07 [6], 0.197 nM; with M107-A12 [7], 1.8 nM; in the test with M118-F11 [8] it was 1.17 nM.

B3: 539B-M0011-H11 Fab (Fab, V domains shown)
VH: EVQLLESGGGLVQPGGSLRLSCAASGFTFSWYNMWWVRQAPGKGLEWVSYIYPSGGNTGYADSVKGRFTISRDNSKNTLYLQMNSLRAEDTAVYYCAVFEYSSSGPQGYWGQGTLVTVSS
VL: QSALTQPPSVSVAPGQTARITCGGNNIGTKSVHWYQQKSGQAPVLVVYDNSDRPSGIPERFSGSNSGNTATLTISRVEAGDEADYYCQVWDNSIDHVVFGGGTKLTVL
Take B3: the IC50 with murine MMP-12 [9] is 9 nM.

B4: 539B-M11H11 IgG (antibody, V domains shown)
VH: B3 VH
VL: B3 VL
For B4, the IC50 in the test with murine MMP-12 [9] amounted to 3 nM.

B5: 539B-M0008-H09 (format not stated) (antibody, V domains shown)
VH: EVQLLESGGGLVQPGGSLRLSCAASGFTFSDYNMHWVRQAPGKGLEWVSYIGPSGGYTHYADSVKGRFTISRDNSKNTLYLQMNSLRAEDTAVYYCAKDIRGAYSSGLFDYWGRGTLVTVSS
VL: DIQMTQSPSSLSASVGDRVTITCRANQSIYTYLNWYQQKPGKAPELLIYAASSLQSGVPSRFSGSGSGTDFTLTISSLQPEDFATYYCQQAGIFGQGTKLEIK
Consider B5, for which the IC50 with murine MMP-12 [10] amounted to 3.7 nM. Also, binding with human MMP-12 [11] was characterised by a dissociation constant (Kd) of 18 nM.

B6: 539B-M0071-H03 (Fab, V domains shown)
VH: B5 VH with D31P, N33W, Y50G, Y57P, H59F, V64I
VL: B5 VL
With B6, the Kd with human MMP-12 [11] is 1 nM.

B7: 539B-M131A06 (antibody, V domains shown)
VH: B5 VH with D31W, N33W, Y50G, G52S, Y57M, H59M, K98R, R101V, A103P, S106A
VL: B5 VL
As for B7, in the test with human MMP-12 [12], the IC50 is 0.321 nM. The Kd with murine MMP-12 [13] was found to be 0.0727 nM; with human MMP-12 [11] it was 0.18 nM.

B8: 539B-M0069-D10 (Fab, V domains shown)
VH: B5 VH with D31L, N33H, Y50G, Y57W, H59I
VL: B5 VL
As for B8, the Kd with murine MMP-12 [14] was 3.4 nM; in the test with human MMP-12 [11], 5.7 nM.

B9: 539B-M0071-D09 (Fab, V domains shown)
VH: B5 VH with D31P, N33W, Y50G, G52S, P53S, Y57D, H59L
VL: B5 VL
As to B9, the Kd with murine MMP-12 [14] came to 1.3 nM; in the test with human MMP-12 [11] it was 4.2 nM.

B10: 539B-M0065-E12 (Fab, V domains shown)
VH: B5 VH with D31W, Y50G, G52S, Y57N, H59M
VL: B5 VL
In the case of B10, the values for the Kd in the test with murine MMP-12 [14] and with human MMP-12 [11] were 1.7 nM and 1.1 nM, respectively.

B11: 539B-M131A06-GA-S (antibody, V domains shown)
VH: B5 VH with D31W, N33W, Y50G, G52S, Y57M, H59M, K98R, R101V, A103P, S106A
VL: DIQMTQSPSSLSASVGDRVTITCRASQSIYTYLNWYQQKPGKAPKLLIYAASSLQSGVPSRFSGSGSGTDFTLTISSLQPEDFATYYCQQAGIFGQGTKLEIKR
Take B11: the IC50 with human MMP-12 [12] is 0.233 nM.
